Measurements taken from patent US20090280138A1 (OXFORD BIOMEDICA UK, published 2009).

Experiments:
Assay in all cases: iTopia iScore
[1] = biological target: T1, MHC class I molecule A*0201 (biotin (bound to streptavidin-coated plate))
T1 construct: also called A2; HLA-A2
Method: (§1) The 9 mers were tested for Peptide Binding, Off Rate and Affinity using iTopia Epitope Discovery System in accordance with the manufacturer's instructions. Briefly, 96 well microtitre plates coated with MHC molecules representing different MHC alleles are used to identify candidate peptides. […] Determinations are performed in duplicate using an ELISA plate reader and included allele specific positive controls.
(§2) Finally, multiparametric analysis is performed on the results from these assays and an iScore is generated. The iScore represents a measure of the overall quality of peptide-MHC binding, enabling candidate peptides to be ranked in order of binding quality and allowing rational prioritisation of peptides for functional cellular follow-up studies.

[2] = biological target: T2, MHC class I molecule A*0101 (biotin (bound to streptavidin-coated plate))
T2 construct: also called A1; HLA-A1
Method: as §1, §2

[3] = biological target: T3, MHC class I molecule A*0301 (biotin (bound to streptavidin-coated plate))
T3 construct: also called A3; HLA-A3
Method: as §1, §2

[4] = biological target: T4, MHC class I molecule B*0702 (biotin (bound to streptavidin-coated plate))
T4 construct: also called B7; HLA-B7
Method: as §1, §2

DEVRAGAFE [5T4 9-mer peptide 66 DEVRAGAFE] was tested, and the iScore [1] was 0, the iScore [2] was 0 and the iScore [3] was 0. The iScore [4] was 0.

In the case of LNLSGSRLD [5T4 9-mer peptide 62 LNLSGSRLD], the iScore [1] is reported as 0, the iScore [2] is reported as 0 and the iScore [3] is reported as 0. The iScore [4] was 0.

For NHIVPPEDE [5T4 9-mer peptide 91 NHIVPPEDE], the iScore [1] was 0, the iScore [2] was 0 and the iScore [3] was 0. It also gave an iScore [4] of 0.

In the case of ELAALNLSG [5T4 9-mer peptide 60 ELAALNLSG], the iScore [1] is reported as 0.075, the iScore [2] is reported as 0 and the iScore [3] is reported as 0. The iScore [4] was 0.

Work on FLTGNQLAV [5T4 9-mer peptide 49 FLTGNQLAV] yielded an iScore [1] of 0.791, an iScore [2] of 0 and an iScore [3] of 0. The iScore [4] was 0.

Work on FARRPPLAE [5T4 9-mer peptide 56 FARRPPLAE] yielded an iScore [1] of 0.042, an iScore [2] of 0 and an iScore [3] of 0. The iScore [4] was 0.

With ASVSAPSPL [5T4 9-mer peptide 84 ASVSAPSPL] the iScore [1] was 0.059, the iScore [2] was 0 and the iScore [3] was 0. The iScore [4] was 0.017.

For LSHNPLADL [5T4 9-mer peptide 75 LSHNPLADL], the iScore [1] was 0.095, the iScore [2] was 0 and the iScore [3] was 0. The iScore [4] was 0.

VRAGAFEHL [5T4 9-mer peptide 67 VRAGAFEHL] was tested, and the iScore [1] was 0, the iScore [2] was 0 and the iScore [3] was 0. The iScore [4] was 0.085.

LSGSRLDEV [5T4 9-mer peptide 63 LSGSRLDEV] showed an iScore [1] of 0.075, an iScore [2] of 0 and an iScore [3] of 0. The iScore [4] was 0.107.

For LPSLRQLDL [5T4 9-mer peptide 71 LPSLRQLDL], the iScore [1] was 0.098, the iScore [2] was 0 and the iScore [3] was 0. It also gave an iScore [4] of 0.454.

LPSLRHLDL [5T4 9-mer peptide 117 LPSLRHLDL] gave an iScore [1] of 0.028, an iScore [2] of 0 and an iScore [3] of 0. It also gave an iScore [4] of 0.445.

SGSNASVSA [5T4 9-mer peptide 82 SGSNASVSA] showed an iScore [1] of 0, an iScore [2] of 0 and an iScore [3] of 0. The iScore [4] was 0.

Binder PFAFSGSNA [5T4 9-mer peptide 80 PFAFSGSNA] has an iScore [1] of 0, an iScore [2] of 0 and an iScore [3] of 0. The iScore [4] was 0.

AALNLSGSR [5T4 9-mer peptide 61 AALNLSGSR] showed an iScore [1] of 0, an iScore [2] of 0 and an iScore [3] of 0. It also gave an iScore [4] of 0.

In the case of NQLAVLPAG [5T4 9-mer peptide 51 NQLAVLPAG], the iScore [1] is reported as 0.22, the iScore [2] is reported as 0 and the iScore [3] is reported as 0. For the same binder, the iScore [4] was 0.

Binder PPLAELAAL [5T4 9-mer peptide 58 PPLAELAAL] has an iScore [1] of 0.075, an iScore [2] of 0 and an iScore [3] of 0. It also gave an iScore [4] of 0.145.

For LAELAALNL [5T4 9-mer peptide 59 LAELAALNL], the iScore [1] was 0.72, the iScore [2] was 0 and the iScore [3] was 0. It also gave an iScore [4] of 0.074.

ILNHIVPPE [5T4 9-mer peptide 90 ILNHIVPPE] was tested, and the iScore [1] was 0.426, the iScore [2] was 0 and the iScore [3] was 0. For the same binder, the iScore [4] was 0.

VLPAGAFAR [5T4 9-mer peptide 53 VLPAGAFAR] gave an iScore [1] of 0.081, an iScore [2] of 0 and an iScore [3] of 0.027. The iScore [4] was 0.

RLDEVRAGA [5T4 9-mer peptide 65 RLDEVRAGA] showed an iScore [1] of 0.422, an iScore [2] of 0 and an iScore [3] of 0.057. The iScore [4] was 0.032.

Work on PAGAFARRP [5T4 9-mer peptide 54 PAGAFARRP] yielded an iScore [1] of 0, an iScore [2] of 0 and an iScore [3] of 0. The iScore [4] was 0.

Binder APSPLVELI [5T4 9-mer peptide 86 APSPLVELI] has an iScore [1] of 0, an iScore [2] of 0 and an iScore [3] of 0. The iScore [4] was 0.101.

AGAFEHLPS [5T4 9-mer peptide 68 AGAFEHLPS] showed an iScore [1] of 0, an iScore [2] of 0 and an iScore [3] of 0. The iScore [4] was 0.

With HNPLADLSP [5T4 9-mer peptide 76 HNPLADLSP] the iScore [1] was 0, the iScore [2] was 0 and the iScore [3] was 0. It also gave an iScore [4] of 0.

Work on ELILNHIVP [5T4 9-mer peptide 89 ELILNHIVP] yielded an iScore [1] of 0.067, an iScore [2] of 0 and an iScore [3] of 0. The iScore [4] was 0.

PLADLSPFA [5T4 9-mer peptide 77 PLADLSPFA] gave an iScore [1] of 0.556, an iScore [2] of 0 and an iScore [3] of 0. It also gave an iScore [4] of 0.

EHLPSLRQL [5T4 9-mer peptide 70 EHLPSLRQL] gave an iScore [1] of 0.046, an iScore [2] of 0 and an iScore [3] of 0. It also gave an iScore [4] of 0.

SNASVSAPS [5T4 9-mer peptide 83 SNASVSAPS] gave an iScore [1] of 0.154, an iScore [2] of 0 and an iScore [3] of 0. It also gave an iScore [4] of 0.

Work on LDLSHNPLA [5T4 9-mer peptide 74 LDLSHNPLA] yielded an iScore [1] of 0.226, an iScore [2] of 0 and an iScore [3] of 0. The iScore [4] was 0.

LAVLPAGAF [5T4 9-mer peptide 52 LAVLPAGAF] showed an iScore [1] of 0.074, an iScore [2] of 0 and an iScore [3] of 0. It also gave an iScore [4] of 0.049.

Work on AFEHLPSLR [5T4 9-mer peptide 69 AFEHLPSLR] yielded an iScore [1] of 0, an iScore [2] of 0 and an iScore [3] of 0. The iScore [4] was 0.

With LSPFAFSGS [5T4 9-mer peptide 79 LSPFAFSGS] the iScore [1] was 0.064, the iScore [2] was 0 and the iScore [3] was 0. It also gave an iScore [4] of 0.

With TGNQLAVLP [5T4 9-mer peptide 50 TGNQLAVLP] the iScore [1] was 0.044, the iScore [2] was 0 and the iScore [3] was 0. It also gave an iScore [4] of 0.

Work on LVELILNHI [5T4 9-mer peptide 88 LVELILNHI] yielded an iScore [1] of 0.109, an iScore [2] of 0 and an iScore [3] of 0. The iScore [4] was 0.

IVPPEDERQ [5T4 9-mer peptide 92 IVPPEDERQ] was tested, and the iScore [1] was 0, the iScore [2] was 0 and the iScore [3] was 0. For the same binder, the iScore [4] was 0.

For NLFLTGNQL [5T4 9-mer peptide 48 NLFLTGNQL], the iScore [1] was 0.107, the iScore [2] was 0 and the iScore [3] was 0. The iScore [4] was 0.

Work on RRPPLAELA [5T4 9-mer peptide 57 RRPPLAELA] yielded an iScore [1] of 0, an iScore [2] of 0 and an iScore [3] of 0. The iScore [4] was 0.

With SLRQLDLSH [5T4 9-mer peptide 72 SLRQLDLSH] the iScore [1] was 0, the iScore [2] was 0 and the iScore [3] was 0. It also gave an iScore [4] of 0.

With ADLSPFAFS [5T4 9-mer peptide 78 ADLSPFAFS] the iScore [1] was 0.116, the iScore [2] was 0 and the iScore [3] was 0. The iScore [4] was 0.

Binder SPLVELILN [5T4 9-mer peptide 87 SPLVELILN] has an iScore [1] of 0.094, an iScore [2] of 0 and an iScore [3] of 0. The iScore [4] was 0.

Binder AFSGSNASV [5T4 9-mer peptide 81 AFSGSNASV] has an iScore [1] of 0.116, an iScore [2] of 0 and an iScore [3] of 0. It also gave an iScore [4] of 0.

RQLDLSHNP [5T4 9-mer peptide 73 RQLDLSHNP] gave an iScore [1] of 0, an iScore [2] of 0 and an iScore [3] of 0. The iScore [4] was 0.

GAFARRPPL [5T4 9-mer peptide 55 GAFARRPPL] showed an iScore [1] of 0.222, an iScore [2] of 0 and an iScore [3] of 0. The iScore [4] was 0.359.

For VSAPSPLVE [5T4 9-mer peptide 85 VSAPSPLVE], the iScore [1] was 0, the iScore [2] was 0 and the iScore [3] was 0. The iScore [4] was 0.

GSRLDEVRA [5T4 9-mer peptide 64 GSRLDEVRA] was tested, and the iScore [1] was 0.13, the iScore [2] was 0 and the iScore [3] was 0. It also gave an iScore [4] of 0.
